B1: full-length native porcine amelogenin P173 (natural protein, UniProt P45561 17-189, looked up)
chain: MPLPPHPGHPGYINFSYEVLTPLKWYQNMIRHPYTSYGYEPMGGWLHHQIIPVVSQQTPQSHALQPHHHIPMVPAQQPGIPQQPMMPLPGQHSMTPTQHHQPNLPLPAQQPFQPQPVQPQPHQPLQPQSPMHPIQPLLPQPPLPPMFSMQSLLPDLPLEAWPATDKTKREEVD
modifications: phosphoserine at 16 (S-16); degree of phosphorylation ~85% by mass spectrometry
B2: recombinant porcine amelogenin rP172, P45561 18-189 (natural protein)
chain: PLPPHPGHPGYINFSYEVLTPLKWYQNMIRHPYTSYGYEPMGGWLHHQIIPVVSQQTPQSHALQPHHHIPMVPAQQPGIPQQPMMPLPGQHSMTPTQHHQPNLPLPAQQPFQPQPVQPQPHQPLQPQSPMHPIQPLLPQPPLPPMFSMQSLLPDLPLEAWPATDKTKREEVD

Assays:
cryo-EM structure = molecular target: the molecule itself; assay: cryo-EM structure
[1] = molecular target: T1, recombinant porcine amelogenin rP172 (porcine), P45561; assay: cryo-EM structure; conditions: remark: other sources report otherwise
T1 chain: B2 chain

Row | Binder | stoichiometry N (cryo-EM structure) | stoichiometry N [1]
1 | B1 | 12 | –
2 | B2 | – | 12

Reference: paper PMC3752671 (Journal of structural biology, 2013)
